Source: publication PMC5425150

Target: type II receptors on the cell surface of INA6 cells (human (endogenous in INA6))

**Q.** For BMP2-L51PL100KN102D (ligand), which concentration for 50% rescue (IC50) from inhibition of INA6 cell proliferation induced by 10 nM Activin A, WST-1; competes with Activin A for the type II receptors is on record?
**A.** Its concentration for 50% rescue (IC50) from inhibition of INA6 cell proliferation induced by 10 nM Activin A, WST-1; competes with Activin A for the type II receptors is 62.5 nM.

B1: Recombinant human BMP2 (wildtype) (ligand)
chain: QAKHKQRKRLKSSCKRHPLYVDFSDVGWNDWIVAPPGYHAFYCHGECPFPLADHLNSTNHAIVQTLVNSVNSKIPKACCVPTELSAISMLYLDENEKVVLKNYQDMVVEGCGCR
**Q.** How did the concentration for 50% rescue (IC50) from inhibition of INA6 cell proliferation induced by 10 nM Activin A, WST-1; competes with Activin A for the type II receptors turn out when B1 was run?
**A.** Its concentration for 50% rescue (IC50) from inhibition of INA6 cell proliferation induced by 10 nM Activin A, WST-1; competes with Activin A for the type II receptors is 250 nM.
